Experimental data taken from PMC13750308 (2026).

T1: Cep192 IDR+ASH8 (Homo sapiens, UniProt Q8TEP8)
T1 chain: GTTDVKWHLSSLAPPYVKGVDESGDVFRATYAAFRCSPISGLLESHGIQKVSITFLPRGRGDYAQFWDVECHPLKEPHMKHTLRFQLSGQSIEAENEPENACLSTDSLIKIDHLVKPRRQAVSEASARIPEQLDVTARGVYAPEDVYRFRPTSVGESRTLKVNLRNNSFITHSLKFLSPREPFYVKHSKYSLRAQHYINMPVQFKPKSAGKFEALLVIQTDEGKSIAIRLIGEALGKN

B1: TRIM37 (protein)
chain: MDEQSVESIAEVFRCFICMEKLRDARLCPHCSKLCCFSCIRRWLTEQRAQCPHCRAPLQLRELVNCRWAEEVTQQLDTLQLCSLTKHEENEKDKCENHHEKLSVFCWTCKKCICHQCALWGGMHGGHTFKPLAEIYEQHVTKVNEEVAKLRRRLMELISLVQEVERNVEAVRNAKDERVREIRNAVEMMIARLDTQLKNKLITLMGQKTSLTQETELLESLLQEVEHQLRSCSKSELISKSSEILMMFQQVHRKPMASFVTTPVPPDFTSELVPSYDSATFVLENFSTLRQRADPVYSPPLQVSGLCWRLKVYPDGNGVVRGYYLSVFLELSAGLPETSKYEYRVEMVHQSCNDPTKNIIREFASDFEVGECWGYNRFFRLDLLANEGYLNPQNDTVILRFQVRSPTFFQKSRDQHWYITQLEAAQTSYIQQINNLKERLTIELSRTQKSRDLSPPDNHLSPQNDDALETRAKKSACSDMLLEGGPTTASVREAKEDEEDEEKIQNEDYHHELSDGDLDLDLVYEDEVNQLDGSSSSASSTATSNTEENDIDEETMSGENDVEYNNMELEEGELMEDAAAAGPAGSSHGYVGSSSRISRRTHLCSAATSSLLDIDPLILIHLLDLKDRSSIENLWGLQPRPPASLLQPTASYSRKDKDQRKQQAMWRVPSDLKMLKRLKTQMAEVRCMKTDVKNTLSEIKSSSAASGDMQTSLFSADQAALAACGTENSGRLQDLGMELLAKSSVANCYIRNSTNKKSNSPKPARSSVAGSLSLRRAVDPGENSRSKGDCQTLSEGSPGSSQSGSRHSSPRALIHGSIGDILPKTEDRQCKALDSDAVVVAVFSGLPAVEKRRKMVTLGANAKGGHLEGLQMTDLENNSETGELQPVLPEGASAAPEEGMSSDSDIECDTENEEQEEHTSVGGFHDSFMVMTQPPDEDTHSSFPDGEQIGPEDLSFNTDENSGR

Key:
[1] = molecular target: Centrobin peptide motif (Homo sapiens) (UniProt Q8N137); details: cited from earlier work
Cep192 IDR+ASH8 = molecular target: T1, Cep192 IDR+ASH8; test: GFP-Trap bead supernatant depletion pull-down with western blot

Molecule | Kd [1] [µM] | Kd (Cep192 IDR+ASH8) [µM]
TRIM37 MATH (from UniProt O94972) | 14 | –
B1 | – | 0.075
